Test system: T1, peptide corresponding to the first 22 amino acids of histone 4, chemically acetylated in vitro
T1 sequence: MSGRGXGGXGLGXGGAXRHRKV

## hSIRT6
  NAD-dependent deacetylase activity: showed no detectable activity

Source: patent US20040091953
